Patent publication US20020197616A1 (REGENTS OF THE UNIVERSITY OF MICHIGAN, published 2002)

B1: caspase-4 (enzyme, UniProt P49662 1-377, looked up)
chain: MAEGNHRKKPLKVLESLGKDFLTGVLDNLVEQNVLNWKEEEKKKYYDAKTEDKVRVMADSMQEKQRMAGQMLLQTFFNIDQISPNKKAHPNMEAGPPESGESTDALKLCPHEEFLRLCKERAEEIYPIKERNNRTRLALIICNTEFDHLPPRNGADFDITGMKELLEGLDYSVDVEENLTARDMESALRAFATRPEHKSSDSTFLVLMSHGILEGICGTVHDEKKPDVLLYDTIFQIFNNRNCLSLKDKPKVIIVQACRGANRGELWVRDSPASLEVASSQSSENLEEDAVYKTHVEKDFIAFCSSTPHNVSWRDSTMGSIFITQLITCFQKYSWCCHLEEVFRKVQQSFETPRAKAQMPTIERLSMTRYFYLFPGN
notes: Construct and tag not described
B2: procaspase-9 (enzyme, UniProt P55211 1-416, looked up)
chain: MDEADRRLLRRCRLRLVEELQVDQLWDALLSRELFRPHMIEDIQRAGSGSRRDQARQLIIDLETRGSQALPLFISCLEDTGQDMLASFLRTNRQAAKLSKPTLENLTPVVLRPEIRKPEVLRPETPRPVDIGSGGFGDVGALESLRGNADLAYILSMEPCGHCLIINNVNFCRESGLRTRTGSNIDCEKLRRRFSSLHFMVEVKGDLTAKKMVLALLELAQQDHGALDCCVVVILSHGCQASHLQFPGAVYGTDGCPVSVEKIVNIFNGTSCPSLGGKPKLFFIQACGGEQKDHGFEVASTSPEDESPGSNPEPDATPFQEGLRTFDQLDAISSLPTPSDIFVSYSTFPGFVSWRDPKSGSWYVETLDDIFEQWAHSEDLQSLLLRVANAVSVKGIYKQMPGCFNFLRKKLFFKTS
notes: as for B1
B3: IKKβ (enzyme, UniProt O14920 1-756, looked up)
chain: MSWSPSLTTQTCGAWEMKERLGTGGFGNVIRWHNQETGEQIAIKQCRQELSPRNRERWCLEIQIMRRLTHPNVVAARDVPEGMQNLAPNDLPLLAMEYCQGGDLRKYLNQFENCCGLREGAILTLLSDIASALRYLHENRIIHRDLKPENIVLQQGEQRLIHKIIDLGYAKELDQGSLCTSFVGTLQYLAPELLEQQKYTVTVDYWSFGTLAFECITGFRPFLPNWQPVQWHSKVRQKSEVDIVVSEDLNGTVKFSSSLPYPNNLNSVLAERLEKWLQLMLMWHPRQRGTDPTYGPNGCFKALDDILNLKLVHILNMVTGTIHTYPVTEDESLQSLKARIQQDTGIPEEDQELLQEAGLALIPDKPATQCISDGKLNEGHTLDMDLVFLFDNSKITYETQISPRPQPESVSCILQEPKRNLAFFQLRKVWGQVWHSIQTLKEDCNRLQQGQRAAMMNLLRNNSCLSKMKNSMASMSQQLKAKLDFFKTSIQIDLEKYSEQTEFGITSDKLLLAWREMEQAVELCGRENEVKLLVERMMALQTDIVDLQRSPMGRKQGGTLDDLEEQARELYRRLREKPRDQRTEGDSQEMVRLLLQAIQSFEKKVRVIYTQLSKTVVCKQKALELLPKVEEVVSLMNEDEKTVVRLQEKRQKELWNLLKIACSKVRGPVSGSPDSMNASRLSQPGQLMSQPSTASNSLPEPAKKSEELVAEAHNLCTLLENAIQDTVREQDQSFTALDWSWLQTEEEEHSCLEQAS
notes: Construct and tag not described for this test
B4: Bcl-10 (other, UniProt O95999 1-233, looked up)
chain: MEPTAPSLTEEDLTEVKKDALENLRVYLCEKIIAERHFDHLRAKKILSREDTEEISCRTSSRKRAGKLLDYLQENPKGLDTLVESIRREKTQNFLIQKITDEVLKLRNIKLEHLKGLKCSSCEPFPDGATNNLSRSNSDESNFSEKLRASTVMYHPEGESSTTPFFSTNSSLNLPVLEVGRTENTIFSSTTLPRPGDPGAPPLPPDLQLEEEGTCANSSEMFLPLRSRTVSRQ
notes: as for B1
B5: caspase-1 (enzyme, UniProt P29466 1-404, looked up)
chain: MADKVLKEKRKLFIRSMGEGTINGLLDELLQTRVLNKEEMEKVKRENATVMDKTRALIDSVIPKGAQACQICITYICEEDSYLAGTLGLSADQTSGNYLNMQDSQGVLSSFPAPQAVQDNPAMPTSSGSEGNVKLCSLEEAQRIWKQKSAEIYPIMDKSSRTRLALIICNEEFDSIPRRTGAEVDITGMTMLLQNLGYSVDVKKNLTASDMTTELEAFAHRPEHKTSDSTFLVFMSHGIREGICGKKHSEQVPDILQLNAIFNMLNTKNCPSLKDKPKVIIIQACRGDSPGVVWFKDSVGVSGNLSLPTTEEFEDDAIKKAHIEKDFIAFCSSTPDNVSWRHPTMGSVFIGRLIEHMQEYACSCDVEEIFRKVRFSFEQPDGRAQMPTTERVTLTRCFYLFPGH
notes: as for B1

molecular target: T1, Nod2 (wild-type, HA-tagged) (human, UniProt Q9HC29 1-1040); experiment: co-immunoprecipitation, HEK293T extracts
T1 construct: Expressed in HEK293T cells and tested in cell extracts by co-immunoprecipitation; also called Nod2a; wt Nod2; not shown: HA tag; the plasmid is named both pcDNA3-Nod2-HA and pcDNA3-HA-Nod2, so the end that carries the ta
Source text: Proteins co-immunoprecipitated with anti-HA antibody were detected with anti-Flag antibody. […] Proteins in total lysate were detected by anti-Flag and anti-HA monoclonal antibody, respectively. […]

T1 sequence (Q9HC29 whole entry): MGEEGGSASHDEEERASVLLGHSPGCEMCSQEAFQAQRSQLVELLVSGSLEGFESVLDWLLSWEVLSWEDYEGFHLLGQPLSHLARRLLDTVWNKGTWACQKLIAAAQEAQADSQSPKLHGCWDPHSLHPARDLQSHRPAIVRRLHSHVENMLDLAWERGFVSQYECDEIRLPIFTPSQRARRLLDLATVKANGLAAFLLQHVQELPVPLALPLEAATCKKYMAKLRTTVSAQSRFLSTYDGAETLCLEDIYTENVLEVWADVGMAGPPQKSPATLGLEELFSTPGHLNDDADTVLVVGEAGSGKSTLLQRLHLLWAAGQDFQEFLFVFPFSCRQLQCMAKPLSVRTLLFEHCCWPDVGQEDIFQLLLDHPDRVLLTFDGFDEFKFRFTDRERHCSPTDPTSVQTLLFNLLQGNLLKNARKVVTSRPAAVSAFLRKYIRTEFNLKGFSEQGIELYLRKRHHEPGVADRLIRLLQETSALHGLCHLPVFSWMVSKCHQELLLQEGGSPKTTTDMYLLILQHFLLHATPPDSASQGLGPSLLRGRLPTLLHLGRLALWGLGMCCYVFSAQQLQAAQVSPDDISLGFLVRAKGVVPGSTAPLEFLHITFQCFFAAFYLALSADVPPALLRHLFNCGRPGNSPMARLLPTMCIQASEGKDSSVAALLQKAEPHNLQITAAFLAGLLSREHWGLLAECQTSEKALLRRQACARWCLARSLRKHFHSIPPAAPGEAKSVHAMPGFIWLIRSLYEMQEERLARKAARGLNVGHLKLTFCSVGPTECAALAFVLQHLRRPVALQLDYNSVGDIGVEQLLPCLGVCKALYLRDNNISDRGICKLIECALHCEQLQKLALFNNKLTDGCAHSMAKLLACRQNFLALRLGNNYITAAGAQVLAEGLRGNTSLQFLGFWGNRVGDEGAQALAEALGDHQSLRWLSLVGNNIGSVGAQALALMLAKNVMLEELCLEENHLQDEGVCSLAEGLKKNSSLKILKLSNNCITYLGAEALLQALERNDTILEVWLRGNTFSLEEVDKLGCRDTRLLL

Binding result, no binding:
B1, B2, B3, B4, B5
